Laboratory results reported in US20150291689A1 (AbbVie / Abbott, published 2015).
Positions count from the first letter of the chain named.

Assays:
[1] = biological target: T1, human IL-17A homodimer (IL-17 A/A) (human, UniProt Q16552 24-155); assay: cell-based or functional assay
T1 sequence: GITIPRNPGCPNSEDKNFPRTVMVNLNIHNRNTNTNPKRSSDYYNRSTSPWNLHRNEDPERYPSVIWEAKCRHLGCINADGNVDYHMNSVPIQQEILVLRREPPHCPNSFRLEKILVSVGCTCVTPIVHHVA

human TNF-α [2] = biological target: T2, human TNF-α (human, UniProt P01375 77-233); assay: cell-based or functional assay
T2 sequence (P01375 77-233 limits assumed): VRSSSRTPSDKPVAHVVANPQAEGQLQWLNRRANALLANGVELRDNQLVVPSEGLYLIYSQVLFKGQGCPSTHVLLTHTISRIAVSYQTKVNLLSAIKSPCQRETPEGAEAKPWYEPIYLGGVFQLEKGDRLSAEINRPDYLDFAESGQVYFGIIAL

[3] = biological target: T3, human IL-17A/F heterodimer (human, UniProt Q16552 24-155; Q96PD4 31-163); assay: cell-based or functional assay
T3 sequence 1: T1 sequence
T3 sequence 2: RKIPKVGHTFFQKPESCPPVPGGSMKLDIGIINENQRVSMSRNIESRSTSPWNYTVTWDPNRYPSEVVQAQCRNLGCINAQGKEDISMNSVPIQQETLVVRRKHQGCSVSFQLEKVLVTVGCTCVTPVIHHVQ

rabbit IL-17 [4] = biological target: T4, rabbit IL-17 (Rabbit, UniProt G1SLF2 24-153); assay: Biacore SPR, 3 experiments
T4 sequence: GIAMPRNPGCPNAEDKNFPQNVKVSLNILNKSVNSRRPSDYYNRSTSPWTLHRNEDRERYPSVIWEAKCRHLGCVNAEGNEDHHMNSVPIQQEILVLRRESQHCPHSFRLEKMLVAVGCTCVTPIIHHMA

rabbit TNF = biological target: T5, rabbit TNF (Rabbit, UniProt P04924 80-235, limits assumed); assay: cell-based or functional assay
T5 sequence (looked up): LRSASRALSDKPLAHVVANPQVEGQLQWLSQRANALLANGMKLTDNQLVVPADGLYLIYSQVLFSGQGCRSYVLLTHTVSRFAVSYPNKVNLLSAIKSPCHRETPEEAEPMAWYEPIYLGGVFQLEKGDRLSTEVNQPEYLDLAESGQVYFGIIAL

mouse TNF = biological target: T6, mouse TNF (Mouse, UniProt P06804 80-235); assay: cell-based or functional assay
T6 sequence (looked up): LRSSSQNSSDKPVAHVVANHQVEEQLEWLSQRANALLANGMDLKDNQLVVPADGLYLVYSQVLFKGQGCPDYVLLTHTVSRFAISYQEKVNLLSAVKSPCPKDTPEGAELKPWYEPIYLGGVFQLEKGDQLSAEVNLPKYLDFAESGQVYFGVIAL

rabbit IL-17 [5] = biological target: T4, rabbit IL-17; assay: cell-based or functional assay
[6] = biological target: T1, human IL-17A homodimer (IL-17 A/A); assay: cell-based or functional assay; remark: listed apart in the source
[7] = biological target: monkey (Rhesus/Cynomolgus) TNF (Monkey (Rhesus/Cynomolgus), UniProt P48094 77-233); assay: cell-based or functional assay
Sequence of monkey (Rhesus/Cynomolgus) TNF (P48094 77-233 limits assumed): as the sequence (P01375 77-233 limits assumed) above, with R44T, T72N, R138L counted along it

rat IL-17 = biological target: T7, rat IL-17 (Rat, UniProt Q61453 18-150, limits assumed); assay: cell-based or functional assay
T7 sequence (looked up): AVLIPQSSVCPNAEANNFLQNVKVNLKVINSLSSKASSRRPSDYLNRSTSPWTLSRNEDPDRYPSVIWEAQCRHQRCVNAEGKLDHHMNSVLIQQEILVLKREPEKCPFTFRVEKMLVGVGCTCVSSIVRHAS

mouse IL-17 = biological target: T8, mouse IL-17 (Mouse, UniProt Q62386 26-158, limits assumed); assay: cell-based or functional assay
T8 sequence (looked up): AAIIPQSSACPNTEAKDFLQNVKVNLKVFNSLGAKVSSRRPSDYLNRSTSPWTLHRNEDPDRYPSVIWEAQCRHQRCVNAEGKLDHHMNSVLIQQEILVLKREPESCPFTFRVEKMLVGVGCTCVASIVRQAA

human TNF-α [8] = biological target: T2, human TNF-α; assay: cell-based or functional assay; remark: listed apart in the source
[9] = biological target: T9, monkey (Rhesus/Cynomolgus) IL-17 (Monkey (Rhesus/Cynomolgus), UniProt F6T3G5 24-155); assay: cell-based or functional assay
T9 sequence: T1 sequence with T3A, N17T, I77V, P104R

rat TNF = biological target: T10, rat TNF (Rat, UniProt P16599 80-235); assay: cell-based or functional assay
T10 sequence (looked up): T6 sequence (looked up) with V22A, V58I, N91S, V96I, I117M, Q130L, F143I, A144T

B1: ABBV-257 (HMAK199-1-GS10-H10F7-M11 DVD-Ig binding protein) (bispecific antibody)
heavy: EVQLVQSGAEVKKPGASVKVSCKASGYTFANYGIIWVRQAPGQGLEWMGWINTYTGKPTYAQKFQGRVTMTTDTSTSTAYMELSSLRSEDTAVYYCARKLFTTMDVTDNAMDYWGQGTTVTVSSGGGGSGGGGSEVQLVQSGAEVKKPGSSVKVSCKASGYTFTDYEIHWVRQAPGQGLEWMGVNDPESGGTFYNQKFDGRVTLTADESTSTAYMELSSLRSEDTAVYYCTRYSKWDSFDGMDYWGQGTTVTVSSASTKGPSVFPLAPSSKSTSGGTAALGCLVKDYFPEPVTVSWNSGALTSGVHTFPAVLQSSGLYSLSSVVTVPSSSLGTQTYICNVNHKPSNTKVDKKVEPKSCDKTHTCPPCPAPEAAGGPSVFLFPPKPKDQLMISRTPEVTCVVVDVSHEDPEVKFNWYVDGVEVHNAKTKPREEQYNSTYRVVSVLTVLHQDWLNGKEYKCKVSNKALPAPIEKTISKAKGQPREPQVYTLPPSREEMTKNQVSLTCLVKGFYPSDIAVEWESNGQPENNYKTTPPVLDSDGSFFLYSKLTVDKSRWQQGNVFSCSVLHEALHNHYTQKSLSLSPGK
light: DIQMTQSPSSLSASVGDRVTITCRASQDISQYLNWYQQKPGKAPKLLIYYTSRLQSGVPSRFSGSGSGTDFTLTISSLQPEDFATYFCQQGNTWPPTFGQGTKLEIKRGGSGGGGSGDIQMTQSPSSLSASVGDRVTITCRASSGIISYIDWFQQKPGKAPKRLIYATFDLASGVPSRFSGSGSGTDYTLTISSLQPEDFATYYCRQVGSYPETFGQGTKLEIKRTVAAPSVFIFPPSDEQLKSGTASVVCLLNNFYPREAKVQWKVDNALQSGNSQESVTEQDSKDSTYSLSSTLTLSKADYEKHKVYACEVTHQGLSSPVTKSFNRGEC
modifications: N-linked glycans on the heavy chain (position not given)
- Mean IC50, IL-17 dependent induction of IL-6 in fibroblasts [1]: 0.026 nM
- Mean IC50, TNF-induced lethality of L929 cells (human TNF-α [2]): 0.025 nM
- Mean IC50, IL-17 dependent induction of IL-6 in fibroblasts [3]: 0.11 nM
- Kd (rabbit IL-17 [4]): 3.3 nM
- IC50, in vitro neutralization assay (rabbit TNF): > 1000 nM
- IC50, in vitro neutralization assay (mouse TNF): > 1000 nM
- IC50, in vitro neutralization assay (rabbit IL-17 [5]): 11.4 nM
- IC50, in vitro neutralization assay [6]: 0.026 nM
- IC50, in vitro neutralization assay [7]: 0.025 nM
- IC50, in vitro neutralization assay (rat IL-17): 0.135 nM
- IC50, in vitro neutralization assay (mouse IL-17): 0.239 nM
- IC50, in vitro neutralization assay (human TNF-α [8]): 0.025 nM
- IC50, in vitro neutralization assay [9]: 0.032 nM
- IC50, in vitro neutralization assay (rat TNF): > 1000 nM
